This data set can be described thus: label from the status in PepcDB records.

“MMKPSVSAAILAAGTSTRMNEMKQLAKIQGTYMLKYVIDQVSNHPFQHIFVIVGHQADIVMKMIQVEDKRVQWLVNDQYKQGQSTSFKLAMEQARQYGDAVMMFLADQPLIEKETVNIVLNEGITRVQEEPFIVRPMYEKKEGHPVYWGNIHALDCSAVNGDKGGKTLMEELERMLIPVHDQGVLVDVDTCEDYKKVNDLMKRKSPSTHLEHHHHHH”: the protein production entry is listed as “not failed”.
With “MMKRHNILTVLAVLLLTFAACDKNSAPGFSFTTDSILTLTFDKELDAAFVGVGTQNYNPVGMRRSGDTLFIANRAEGSDGVWVVRASTGELLYSLTGWTYNGKNEKFDNQVMDVAVSSDYIFVVNRSSRIDLFRRNDYSYVTTIGRTGWQSSSLLQCEAAEVAGDKLFIRDKQKIKVVQISDCTPENRFKVPVFAQNTDSTSSNNGFNLESVARHEGLIYVSDYETSRILVIDPATVAVKGEPVRFLRSYRMPNKPLSMGFFQNEMYVVCANNCIVRVDLRTGKELGSYSSFAGGVGLGTPGRLLFHNDTFYLAGRNANAPRLIQGKVMFVEISELD”, the protein production result is “failed”.
Consider “MMLRRLALSAATGLMLALPALAETVSDFRLPNGLEVVVIEDHRAPVVTHMVWYRVGAADEPPGHSGIAHFLEHLMFKGTDEMSAGEFSATVEAQGGDDNAFTSWDYTAYFQRVAADRLDLMMKMEADRMRDLQMTEEDVRTERQVVLEERSQRTDSDPGAVFSEQSRAAAYLNHPYGIPIIGWRHEIEQLGREDAFSFYRTYYAPNNAILVVAGDVDPAEVRRMAEEHYGALEPTPNLPERLRPQEPPQLAERRLTFSDPRVAQPYVSRSYLAATRETGAQEKAAALTILAELLGGSPTTSLLSRELQFGPEPKAVWAQAYYDGGGLDSGTFGLAVVPAAGVSLQEAEDAMDAVVARFLKEGPDAEDFERIKTQLGAQDIYSRDNVDGLARRYGAALTTGLTVADVQAWPEVLQAVTPDEVMAAAREVFDRRRAVTGWLMQEDEEKSQ”, for which the protein production result is on record as “failed”.
On to “MMNETLKVIAERYSCRDFKNEMPSDELLQAIAEAAIQAPSGMNRQAWRVIVVKNKELMQEMEAEGLAYLAGMEDQSSYNRIMERGGRLFYGAPCMIVVPIDPTQYGPALVDCGILCQTIALAATSLGIANIMCGYTGLAFASGLRAEEFSKRLGFPEGYAFGCSVLLGHANTTKPPHVPDKDKITYVE”, for which the protein production entry is “not failed”.
For “MMNRILLIFLILMSTCFAGCFEQNNLEKSQEMAEIGFAYIGIDNDKAIEYYEKAIKLNPDDANAISFLGTLYDGEGDREKAYEYLTKALEMEPKNPWMYYNLGLYYLNHDDNMAIGCFEKALRIDPENECCWSQLGYTYYDIGDYTNSKLNFEKAYEINPKDQYSDMIEKCNEGI” the value was “failed”; for “MMNSDRNKYRKENDMGKQVRDKEVQEIMDYIMNKGEDSEERVYKLFKMNGVIYEIACNISRNQNSETTQNQIRKFYDYTIKINSKDEKKAKIKLAMMMPQIYYAIQRKVISSDSPFVKFLEDSIDKLNKTEDFENAFNRFLNVFQAIVAYSKKSRSDRNE”, “failed”; for “MMNYNTPKVSIVVPSLNSISYIRECIDSILNQTLKDIEILCIDANSTDGTLEVLKNYEKKDKRLRVIISDKKSYGYQMNLGIKEAKGEYLGIVESDDYIKTNMYERLYEIAKKNDCEVVKGDFYILESNKGKYSKITPIDFLYNQIISFKTHPNIFNFQSINPIGIYRLDLLRTNQIKLNETPGASYQDNGLWFQIFALAKSIYFINEAFYMLRRDNPNSSVKSKEKVYCACEEYDFIRDFLKKHPDLEKTLAPICALHRFGNYMFTLERIDERYKLDFLKRFSQDFRKILKDKELDENLFGDGDMKIIYSIVENPENYYFLYMGYCNDMFGKLYFGASERIKWQLSYRIGKLLIDLKNPVQILKFPFKLFLEIKQFKFEQKIYKTTIKFYPNLQLPPLEEYSDYEQALKTKKHLSYILGKSFINNPILFIFKIKKIYKQYKKDISSSKKNIKELSDYDFLLNRHKQIFDYTPDFKCPVTFNEKLIYRILYDRSCIYSFLADKIKMRFYVASALSDNHEYSWDKIDILNEKSILFNNIDDLQDKIFETNKCKYLPKIYGIYKNIYDINFNELPNSFVLKTNHDCGGYVIVENKQEFLRDTVVFSNAMKKLKKHLEWNYYSVFREWHYKDIEPRVFAEELLLGENKKPADTYKFHIFDKENLSNNFIQVTTDRFDNYQRAMFDLSWNLAPFNFMYDNKNVTMIPKKPNLLDSMINISLILAKPFDYVRVDLYQFDKKIYIGELTFTHGAAGEKVIPKEWDKKLGDLWRLKRLDNASK”, “failed”.
With “MMQESGTETKSNGSAIQNGSGGSNHLLECGGLREGRSNGETPAVDIGAADLAHAQQQQQQWHLINHQPSRSPSSWLKRLISSPWELEVLQVPLWGAVAETKMSGPVCQPNPSPF”, the protein production result is “failed”.
With “MMQPKFCTRCLAMSTRPRITFNRDGVCNACLWQEQKSSVDWDDRNSKLLSLLDSHRSKNNSYDVIVPVSGGKDGSYVAYNLKHKFNMNPLCVTVTPPLETQLGAQNLKNFIKSGYDQVSININPETIRNINRAGFVHHGFPYFGWLVAIVTSVTRVAQQMNVPLIMYGEDAEMEYGGSSEKANLTTFGIEYMKRVGFEAGYEKVFSTLDLSDSDLYWLTFAEQDKTQVLFSHWSYFENWDPYRNYLVAKKQCGLQEADDTNFGTFTNFAQNDQYLYVLHTYLMYLKFGFGRSNQDACIEIRRGAMKREQAINLVRLYDGQFPDEFLQMYLEYYQMSEAEFNATLARWVNKDLFELKDGLWSPTFTIQ” the entry was “failed”; with “MMQVQYIIWLSCCFKRMNKDREFTESKTIKQNTKMKKRILGAALLVAIAVAAGWNYNQSRNEVPLSDLALANAEALAQGETDWGNCTYYGCIVDFSSTCNVYSSIWGNLIKVCPNMRG”, “failed”; with “MMRAKVNQGINLNDYNGVWVIGEQREGKINPVTIELIGEGRKLADQLGKELAVVIAGYEVEKEVKELLHYSVDKVYYINDPLLKDFTTDGYAISIANLIERKKPEVVLVGATSIGRDIAPRIAGKVGTGLTADCTKLEIDSTDNKLLQTRPAFGGNLMATIVCPKNRPQMSTVRPGVMAKAVRNESETGILEVVTPELTEKMIRTRLVEIL”, “failed”.
For the sequence “MMRRQASVLLLVSMVSATVLPVFARAPGEREPSCAATSIVLPAGARYPNGIAHAADGTLYVGLVTSGRILRKPPGGEWETFFAGSPAIFAATALRLDEPRGLLWGNSPDFLPAGRRRPHGVFALDLASGAVRRYLTLPGDGMGNDLAVAPDGTVYLSETRDGSLMRLRPGEPAFQVLLRDSRLAGPGGLGAAGIVRVDDDTLLVGNFGSGAIHVVEGVATRPRLREMELPRTLENPDGMALAPDGSLIVLENAIRSGAGKVLRIAEPLAPGRRGIEVIREGLESPVNLTVTGQGCAYVSESRIRHRLLPGREGEVPARFLIHRLPLDAAGGR”, the protein production entry was “failed”.
For the sequence “MMRRYFYQFSQKMITSVWWLLFVPMLLFAVMSPNIILGDNATFGTSTTLLTTGLIIVIVAVLIMNYAYPRVHRGLYRLLITKQLRTAGVLLALVFIGQLVFVTFVHPVSGFDAGMLHYAATSAKHVQEVGVTAYYSLNQNNMPIMLFMHWLSEVTGQTSWQFFDYVTLFFVDLSAAFNLMSVFVVRRSALGIAMYLHAGWLAVFPSIIMPYTDAWGLPLVSFFMLCYFVMSQTKRPPLLRVAAAVGFGVSVTLTYFMKPSSIIPVIAIAIISFLARLRSRQGSQTTMIFVTVAMAILMLESAGLTYHYTNQAIQNQTYIKIDKSRSIPAIHFMAMGVYGSGGYSEKQAIQMAVLPTKAQKTAYSIKMLKRQLKKLGPWGYLEFLVKKQRNNTADGTFGWLKEGNFFRENQKPSNQGFSNWLKNFIYLYGRHIADFRFVAQLWWLVLLVIIALGFGPRWQLIQLLRLAMIGGFIFLLLFEGGRSRYLIQYLPCLLLLGAFSFERAVANIRRVRDWYQRKLRAAIAADESE”, the protein production entry is recorded as “failed”.
For “MMSRKRWLALIAAAMLFVASAAISLVSSPAVDVDEWVGTGTSYKQTIVETGTDFGKSIAILELSGVIQDTGSAPSLLNTGVYHHRDFLKQLEKAGEDPNIAGIILQVNTPGGGVLESAEIHKQVEEIVQDSEKPVYVSMGNMAASGGYYISAPATKIYAHPQTITGSIGVIMQSIDISGLAENLGIEFNTFKSGPYKDILSQTREVTDEEEDILQTLVDEMYDEFVRVIVDGRGMSETEVRELADGRIYTGSQAVATGLVDELGGLDDVIESMKEDLGADYNVIRYEHSLGLYDFFSMSTNRLLSPSYELQSIERLLNQSNTPTLQYLYAELEHHHHHH” the value was “not failed”; for “MMSTPALRPYLPEDAAVTAAIFVASIEQLTADDYSEEQQEAWASAADDEAKFAARLSGQLTLIATLQGVPVGFASLKGPDHIDMLYVHPDYVGRDVGTTLIDALEKLAGARGALILTVDASDNAAEFFAKRGYVAKQRNTVSINGEWLANTTMTKSLADSAAPGASS”, “not failed”; for “MMSVLARMRVMRHRAWQGLVLLVLALLLSSCGWRGISNVAIPGGPGTGPGSYTIYVQMPDTLAINGNSRVMVADVWVGSIRAIKLKNWVATLTLSLKKDVTLPKNATAKIGQTSLLGSQHVELAAPPDPSPVPLKDGDTIPLKRSSAYPTTEQTLASIATLLRGGGLVNLEGIQQEINAIVTGRADQIRAFLGKLDTFTDELNQQRDDITRAIDSTNRLLAYVGGRSEVLNRVLTDLPPLIKHFADKQELLINASDAVGRLSQSADQYLSAARGDLHQDLQALQCPLKELRRAAPYLVGALKLILTQPFDVDTVPQLVRGDYMNLSLTLDLTYSAIDNAFLTGTGFSGALRALEQSFGRDPETMIPDIRYTPNPNDAPGGPLVERGNRQC”, “failed”.
With “MMTCDEIRLPKPPRLQPFLFLLRNDSLSKYSQPPRFDLARILFSLVFITIMIIACFWVVQPFILGFAWACMVVIATWPMLIKFQALLWGRRSLAVLVMTLLLILLFVVPIAVLVSSVIDNSSALMSWGSRQENLSPPTLEWLTSIPLVGEKLFNSWQALLQSGGSGLFAKVQPYFGKTATWLVAQAAHVGRFLMHCSLMLIFSALLYYKGEAVAKAVRHFAIRLGRERGDAAVILAAQSIRAVALGVVVTAIVQSVLGGIGLGLSGIPYTTLLTVLMFLCCLAQLGPLLVLIPAIIWLYWTGDNTWGTILLVWSCVVGTIDNVIRPMLIRMGADLPMLLILSGVIGGLLAFGMIGLFIGPVVLAVSYRLLFAWMREIPEPQNLLSVNTTKTPNKES” the entry was “failed”; with “MMTITTDRTPPAAGAALDRNRSAYAGLADVLERAGLAEHALYLNWGYRPVDGQPDWAARELPPGELGRMQARLVLEVLGDTPLDGRRVLDVGCGRGGALALMGRLHAPAALAGADISAANIAYCRKRHTHPRLRFQIADACRLPYPDSSMDVVFNLESSGAYPDIGAFFHHVHRILRVGGRFCLADVFDADSVAWVRAALEQAGFTLERERSIPAQVRAARERASPGIWRRLDTALTALDAPGLRRELERYLAAPSSGLFQALEDGRVDYRLFHWRKTCPAAGRIDADVIARLATRSARLDAALQDRAPSAAAPQSPAPGPANASASAWFPFTAPDAQAGFNVFALPYAGGGASVYRAWTLPRRPGAAPWQLCPVQLPGRESRFGEPLIDDMATLADRLADAIGPYAHRPWALLGCSLGCKIAFEVARRFARQGRPPALLFLMACPAPGLPLGRRISTRAEADFAREVCHLGGTPPEVLADAEMMRTLMPILRNDSALAEHYVAAEDATVNVPIVMVAAGDDHLVTVEEARRWQRHAGAGFDWRLVDGGHFFLRQRRRELTDWLLDALRRGERTLPVQTTTTDVPDVPCSTPEQPRDPSRMPAPGASANLVLAPGEILVVTAPRSLAARLTPAVLSDDEQRQLARFAFDADRERYLAAHWAKRRVLGALLAAAPRSLRFGAQAGGKPYLIGEALHFSLSHSGDRVAVAVCRHAPVGVDIEQARGIACHASAARIMHPLDRIAPQCETPEDRFLAAWSLKEAVAKCTGAGLALPFDSLRLAFAGNGRYGCLLGTHAAWEAHHQHEDGVHLAVASATPWAALRILPLDAALAEG”, “failed”.

The values are drawn from a protein production outcome set (Wang et al. 2014).
